In series [1] the target is T1, U2AF65 1,2L (human, UniProt P26368 141-342). Description: fluorescence anisotropy; Anisotropy: 100 mM NaCl, 15 mM HEPES pH 6.8, 0.2 mM TCEP, 0.1 U/ul Superase-In, 30 nM RNA, 23 C; smFRET: 50 mM HEPES pH 7.4, 100 mM NaCl, room temperature. A general note: Polarisation of emitted light reports the rotation of a fluorescent probe.
Another series has as its target U2AF65 1,2L R227A (human, UniProt P26368 141-342, R227A). The series is described as above.
The next series has as its target dU2AF65 1,2 (human, UniProt P26368 148-336, del238-257). Described as above.
The target of a further series is U2AF65 1,2L NLALA (human, UniProt P26368 141-342, S251N;T252L;V253A;V254L;P255A). The series is described as above.
A further series addresses flU2AF65;U2AF35-UHM (human;human, UniProt P26368;Q01081 1-475;43-146, |). The description is as above.
A further series deals with U2AF65 1,2L 12Gly (human, UniProt P26368 141-342, M144G;L235G;M238G;V244G;V246G;V249G;V250G;S251G;T252G;V253G;V254G;P255G). The series is described as above.
Another series deals with U2AF65 1,2L 5Gly (human, UniProt P26368 141-342, S251G;T252G;V253G;V254G;P255G). The description is as above.
For a further series, the target named is U2AF65 1,2L Q147A (human, UniProt P26368 141-342, Q147A). The description is as above.
Another series has as its target U2AF65 1,2L 3Gly (human, UniProt P26368 141-342, V249G;V250G;V254G). Described as above.
For another series, the target named is dU2AF65 1,2L (human, UniProt P26368 141-342, del238-257). Described as above.
For another series, the target named is U2AF65 1,2L 3Mut (human, UniProt P26368 141-342, Q147A;R227A;V254P). The series is described as above.
The target in a further series is U2AF65 1,2L V254P (human, UniProt P26368 141-342, V254P). The series is described as above.
The target in series [2] is T1, U2AF65 1,2L. Described as above. The source holds these as a separate data set.
Series [3] has as its target T2, U2AF65 1,2L FRET (human, UniProt P26368 113-343, A181C;C305A;Q324C). The series is described as follows: smFRET; slide-tethered protein, 5 uM RNA; Anisotropy: 100 mM NaCl, 15 mM HEPES pH 6.8, 0.2 mM TCEP, 0.1 U/ul Superase-In, 30 nM RNA, 23 C; smFRET: 50 mM HEPES pH 7.4, 100 mM NaCl, room temperature.
The target of series [4] is T2, U2AF65 1,2L FRET. Description: smFRET; slide-tethered protein, 10 uM RNA; Anisotropy: 100 mM NaCl, 15 mM HEPES pH 6.8, 0.2 mM TCEP, 0.1 U/ul Superase-In, 30 nM RNA, 23 C; smFRET: 50 mM HEPES pH 7.4, 100 mM NaCl, room temperature.
In series [5] the target is T3, full-length human U2AF^65 (residues 1–475) (human, UniProt P26368-1 1-475).
T3 construct: U2AF65 (U2AF2), human, full length, residues 1-475; also called flU2AF^65; U2AF2; source: expressed as a GST fusion protein, purified (GST cleavage, SP-HiTrap ion exchange)
Description: SEC; U2AF65 combined with slight excess U2AF35-UHM (ratio 1:1.2), dialysed overnight, heterodimer purified on Superdex-200 prep-grade in 150 mM NaCl, 25 mM HEPES pH 6.8, 0.2 mM TCEP. The conditions noted are these: both partners purified. For orientation: In gel filtration, larger molecules generally elute earlier.

Here are results for seven molecules from PMC4786784 (Nature Communications, 2016).

T1 sequence (P26368 141-342, one chain of several): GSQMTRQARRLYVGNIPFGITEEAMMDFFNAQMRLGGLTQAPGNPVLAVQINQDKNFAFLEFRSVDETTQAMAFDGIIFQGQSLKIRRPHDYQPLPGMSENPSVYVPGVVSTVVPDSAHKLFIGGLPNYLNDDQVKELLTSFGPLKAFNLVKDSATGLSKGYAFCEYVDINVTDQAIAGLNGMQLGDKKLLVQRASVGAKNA
Sequence of flU2AF65;U2AF35-UHM (P26368 whole entry, one chain of several): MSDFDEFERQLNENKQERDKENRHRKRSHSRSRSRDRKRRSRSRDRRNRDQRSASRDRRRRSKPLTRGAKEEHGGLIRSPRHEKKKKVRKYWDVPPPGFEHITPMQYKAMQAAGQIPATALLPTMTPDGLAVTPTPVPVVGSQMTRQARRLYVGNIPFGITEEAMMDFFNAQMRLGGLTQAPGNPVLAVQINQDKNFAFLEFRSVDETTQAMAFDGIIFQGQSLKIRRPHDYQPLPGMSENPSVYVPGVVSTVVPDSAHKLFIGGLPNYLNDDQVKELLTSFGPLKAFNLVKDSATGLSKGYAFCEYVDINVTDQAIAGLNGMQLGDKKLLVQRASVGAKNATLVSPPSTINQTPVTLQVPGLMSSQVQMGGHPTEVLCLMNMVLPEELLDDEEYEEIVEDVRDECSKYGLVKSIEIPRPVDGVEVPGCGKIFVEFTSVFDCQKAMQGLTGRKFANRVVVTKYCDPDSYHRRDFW
T2 sequence (P26368 113-343 A181C/C305A/Q324C, one chain of several): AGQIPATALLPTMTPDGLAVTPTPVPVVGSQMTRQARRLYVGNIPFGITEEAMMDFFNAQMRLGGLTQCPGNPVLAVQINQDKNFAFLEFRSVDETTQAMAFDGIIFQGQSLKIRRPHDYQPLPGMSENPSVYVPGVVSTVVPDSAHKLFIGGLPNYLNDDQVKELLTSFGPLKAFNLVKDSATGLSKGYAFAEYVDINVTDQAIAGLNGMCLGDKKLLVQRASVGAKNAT
Sequence of dU2AF65 1,2L (P26368 other isoform, or with tags, fused parts or gaps del238-257): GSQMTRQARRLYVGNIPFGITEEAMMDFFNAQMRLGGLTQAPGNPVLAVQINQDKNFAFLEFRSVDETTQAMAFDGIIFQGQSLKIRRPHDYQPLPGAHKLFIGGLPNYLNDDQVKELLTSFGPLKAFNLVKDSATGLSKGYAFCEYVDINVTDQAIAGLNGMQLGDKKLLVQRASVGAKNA
Sequence of U2AF65 1,2L V254P (P26368 141-342 V254P, one chain of several): as the sequence (P26368 141-342, one chain of several) above, with V114P counted along it
Sequence of dU2AF65 1,2 (P26368 other isoform, or with tags, fused parts or gaps del238-257): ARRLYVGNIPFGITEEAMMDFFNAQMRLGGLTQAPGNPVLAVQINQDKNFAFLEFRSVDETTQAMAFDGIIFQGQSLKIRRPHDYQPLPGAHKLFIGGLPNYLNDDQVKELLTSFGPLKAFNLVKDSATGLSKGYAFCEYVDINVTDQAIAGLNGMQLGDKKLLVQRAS
Sequence of U2AF65 1,2L 5Gly (P26368 141-342 S251G/T252G/V253G/V254G/P255G, one chain of several): as the sequence (P26368 141-342, one chain of several) above, with S111G, T112G, V113G, V114G, P115G counted along it
Sequence of U2AF65 1,2L NLALA (P26368 141-342 S251N/T252L/V253A/V254L/P255A, one chain of several): as the sequence (P26368 141-342, one chain of several) above, with S111N, T112L, V113A, V114L, P115A counted along it
Sequence of U2AF65 1,2L 3Gly (P26368 141-342 V249G/V250G/V254G, one chain of several): as the sequence (P26368 141-342, one chain of several) above, with V109G, V110G, V114G counted along it
Sequence of U2AF65 1,2L 12Gly (P26368 141-342 M144G/L235G/M238G/V244G/V246G/V249G/V250G/S251G/T252G/V253G/V254G/P255G, one chain of several): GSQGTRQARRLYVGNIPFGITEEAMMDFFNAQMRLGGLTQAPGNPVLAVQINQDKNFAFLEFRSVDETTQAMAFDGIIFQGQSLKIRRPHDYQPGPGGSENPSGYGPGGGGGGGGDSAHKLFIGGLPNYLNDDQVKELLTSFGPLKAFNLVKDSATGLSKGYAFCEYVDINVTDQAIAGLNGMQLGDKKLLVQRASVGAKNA
Sequence of U2AF65 1,2L 3Mut (P26368 141-342 Q147A/R227A/V254P, one chain of several): as the sequence (P26368 141-342, one chain of several) above, with Q7A, R87A, V114P counted along it
Sequence of U2AF65 1,2L Q147A (P26368 141-342 Q147A, one chain of several): as the sequence (P26368 141-342, one chain of several) above, with Q7A counted along it
Sequence of U2AF65 1,2L R227A (P26368 141-342 R227A, one chain of several): as the sequence (P26368 141-342, one chain of several) above, with R87A counted along it
T3 sequence (P26368 whole entry, the tested form may be a part): as the sequence (P26368 whole entry, one chain of several) above

B1: AdML Py tract rArA mutant (ssRNA)
RNA: CUUUUUAAUUUCC
In the case of B1, the binding signal with U2AF65 1,2L [1] was ~5 fold lower affinity than AdML.

B2: AdML Py tract 13mer (ssRNA)
RNA: CCCUUUUUUUUCC
By Kd is commonly meant the concentration at which binding is half-saturated. High values mean a looser complex, low ones a tighter complex. For B2, the Kd with U2AF65 1,2L R227A stood at 166 ± 2 nM; with dU2AF65 1,2, 5000 ± 100 nM; with U2AF65 1,2L NLALA, 45 ± 3 nM; with flU2AF65;U2AF35-UHM it was 30 ± 3 nM; with U2AF65 1,2L 12Gly, 88 ± 21 nM; in the series with U2AF65 1,2L 5Gly it was 61 ± 3 nM. Moreover, the Kd with U2AF65 1,2L Q147A turned out to be 171 ± 21 nM; with U2AF65 1,2L 3Gly, 47 ± 4 nM; in the series with dU2AF65 1,2L, 123 ± 5 nM; in the series with U2AF65 1,2L 3Mut, 5630 ± 70 nM; in the series with U2AF65 1,2L V254P, 137 ± 10 nM.

B3: 5'-4rU (ssRNA)
RNA: CCUUUUCCCCCCC
As to B3, the Kd turned out to be 41 ± 2 nM with flU2AF65;U2AF35-UHM and 31 ± 3 nM with U2AF65 1,2L [2].

B4: 3'-4rU (ssRNA)
RNA: CCCCCCCUUUUCC
Turning to B4, the Kd in the series with flU2AF65;U2AF35-UHM was 414 ± 12 nM; with U2AF65 1,2L [2], 417 ± 10 nM.

B5: AdML Py tract 12mer (ssRNA)
RNA: CCUUUUUUUUCC
As to B5, the binding result with U2AF65 1,2L FRET [3] is reported as “binds”.

B6: rArA-interrupted Py tract (ssRNA)
RNA: CUUUUUAAUUUCCA
B6: the binding result with U2AF65 1,2L FRET [4] is given as “binds”.

B7: U2AF^35-UHM (U2AF homology motif; residues 43–146) (domain or fragment, UniProt Q01081-1 43-146, looked up)
chain: SQTIALLNIYRNPQNSSQSADGLRCAVSDVEMQEHYDEFFEEVFTEMEEKYGEVEEMNVCDNLGDHLVGNVYVKFRREEDAEKAVIDLNNRWFNGQPIHAELSP
notes: also called heterodimerization domain of the U2AF^35 subunit; U2AF1; source: expressed as a GST fusion protein, purified (GST cleavage, Q-HiTrap ion exchange)
As to B7, the binding result in [5] was “binds”.
